Results published in patent US12297272B2, “IgG Fc variants for veterinary use” (Elanco US Inc., priority 2017, dated 2025).

Tests used:
[1] = cited from earlier work
[2] = In vivo pharmacokinetics in cats, serum concentration by quantitative ELISA; conditions: single dose 2 mg/kg subcutaneous, 5 cats
Method: (§2) The plate was sealed and incubated overnight at 4° C. […] After removing the blocking buffer, serial dilutions of reference standard and samples in blocking buffer were added (100 μl/well) and the plate was incubated for 2 hours at room temperature. […] TMB substrate (ScyTek, Catalog No. TM1999) was added (100 μl/well) and allowed to incubate at room temperature for 1 minute. The reaction was stopped by the addition of 2M H2SO4 (50 μl/well).

[3] = format: in vitro ADME, feline
Method: (lane 1), in PBS for 24 hours at 37° C. (lane 2), in PBS for 24 hours at 4° C. (lane 9). A mouse anti-GLP1 antibody was used.
(§1) GLP1-G8_I_VARfeIgG2 (SEQ ID NO: 26) was stored in PBS, pH7.2 with feline serum at 37° C. for 24 hours to test in vitro serum stability.

[4] = in vivo, sc, 2 mg/kg
Method: as §2

GLP1R = molecular target: T1, GLP1R (Homo sapiens, UniProt P43220); experiment: Long-term storage stability, CHOK-1-GL1R cells with cAMP-Glo Max Assay; format: cell-based; conditions: stored in PBS, pH7.2, 1.3 mg/mL, 2-8° C. for one year
T1 construct: host or cells: CHO-K1 (hamster ovarian cell line), CHOK-1-GL1R
T1 sequence (P43220 24-463): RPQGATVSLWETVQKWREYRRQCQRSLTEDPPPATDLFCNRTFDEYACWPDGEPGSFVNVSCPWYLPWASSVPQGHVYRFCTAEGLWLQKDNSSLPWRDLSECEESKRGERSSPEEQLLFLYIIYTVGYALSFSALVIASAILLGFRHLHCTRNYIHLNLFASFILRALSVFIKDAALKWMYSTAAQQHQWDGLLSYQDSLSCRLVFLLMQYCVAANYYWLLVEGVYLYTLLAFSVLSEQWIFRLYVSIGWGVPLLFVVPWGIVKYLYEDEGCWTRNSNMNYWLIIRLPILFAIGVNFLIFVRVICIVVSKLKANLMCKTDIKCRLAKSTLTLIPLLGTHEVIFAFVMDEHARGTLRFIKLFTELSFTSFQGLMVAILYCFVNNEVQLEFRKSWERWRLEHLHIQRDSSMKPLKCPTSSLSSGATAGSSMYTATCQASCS
Method: GLP1-G8_I_VARfeIgG2 (SEQ ID NO: 26) was stored in PBS, pH7.2 at a concentration of 1.3 mg/mL, placed in 1.5 mL Eppendorf tube, and stored at 2-8° C. for one year (Lot 2-29-2016). GLP1-G8_I_VARfeIgG2 (SEQ ID NO: 26) was also stored in PBS, pH7.2 at a concentration of 10 mg/mL, placed in 1.5 mL Eppendorf tube, and stored at 2-8° C. for one day (Lot 2-2-2017).
CHOK-1-GL1R cells were plated in a 96-well plate (Corning, Cat #3610) at a density of 20,000 cells per well in F-12K Medium (ATCC, Cat #ATCC® 30-2004) supplemented with 10% Fetal Bovine Serum, heat inactivated (Sigma, Cat #2868) and incubated at 37° C., 5% CO2 for 24 hours. […] (Sigma Aldrich, Cat. #B8279) to a final concentration 100 μL.
The cells were incubated at room temperature for 30 minutes. In this process, upon GLP1 binding to the Gs-coupled GLP1R receptor, Gs stimulates adenylate cyclase to generate cAMP. […]
Mono-oxygenation of luciferin was catalyzed by luciferase in the presence of Mg^2+ and ATP that presented in the cell lysate, resulting in a luminescent signal proportional to the amount of ATP in the cells. At the end of 10 min incubation, the plate was read on a Synergy HT microplate reader (Biotek, Winooski, VT). Luminescence is proportional to ATP levels but inversely proportional to cAMP levels. Thus, as cAMP concentration increases, luminescence decreases.

[5] = In vivo pharmacokinetics in cats, serum concentration by cell-based activity assay; conditions: single dose 2 mg/kg subcutaneous, 5 cats, 0 to 168 hours
[6] = Differential scanning fluorimetry, stability at various pH; format: physicochemical; conditions: n = 3, 10 μg construct
Excerpt: Furthermore, differential scanning fluorimetry was used to assess the stability of the contiguous polypeptides at various pH, as reflected by mean melting point temperature (n=3) (Table 9, below). The increased stability of the variant feline IgG2 hinge is most evident at pH 6.

[7] = in vivo, sc, 2 mg/kg; remark: listed apart in the source
[8] = format: in vitro ADME, feline; conditions: pH 7.2
Method: as §1

Molecule: Native GLP1: Glucagon-like peptide-1 (GLP1), a potent antihyperglycemic hormone
- in vivo half-life [1]: approximately 2 minutes

B1: GLP1-G8_I_VARfeIgG2: Formula I GLP1-G8 contiguous polypeptide comprising variant feline IgG2 Fc of SEQ ID NO: 17 (Gly to Cys at position 14) (protein)
chain: HGEGTFTSDVSSYLEGQAAKEFIAWLVKGGGGSGGGGSGGGGSGGGGSPKTASTIESKTGECPKCPVPEIPGAPSVFIFPPKPKDTLSISRTPEVTCLVVDLGPDDSNVQITWFVDNTEMHTAKTRPREEQFNSTYRVVSVLPILHQDWLKGKEFKCKVNSKSLPSAMERTISKAKGQPHEPQVYVLPPTQEELSENKVSVTCLIKGFHPPDIAVEWEITGQPEPENNYQTTPPQLDSDGTYFLYSRLSVDRSHWQRGNTYTCSVSHEALHSHHTQKSLTQSPGK
modifications: Synthetic GLP1-G8_I_VARfeIgG2
- average Cmax [2]: 12000 ng/mL
- average Tmax [2]: 22 h
- mean area under the curve (AUC) [2]: about 950 m(h)/mL
- degradation by Western blot [3]: no visible degradations were observed
- mean serum half-life (t1/2) [4]: 39 h
- cellular activity after storage (GLP1R): maintained cellular activity
- mean AUC [5]: about 840 μg(h)/mL
- Mean Melting Point Temperature (Tm) ([6]; pH 5): 53.1 °C
- Mean Melting Point Temperature (Tm) ([6]; pH 6): 59.7 °C
- Mean Melting Point Temperature (Tm) ([6]; pH 7): 59.9 °C
- Mean Melting Point Temperature (Tm) ([6]; pH 8): 58.2 °C
- mean t1/2 [7]: 36 h
- activity after serum incubation [8]: activity was maintained
